# Laboratory results published in patent publication US20240424023A1.
# Tests used:
# [1] = biological target: CD86-mCherry expressed on DG75 cells (UniProt P42081); assay: cell-based or functional assay
# [2] = biological target: CD80-mCherry expressed on DG75 cells (UniProt P33681); assay: cell-based or functional assay
# UniProt P33681, sequence (P33681 35-288): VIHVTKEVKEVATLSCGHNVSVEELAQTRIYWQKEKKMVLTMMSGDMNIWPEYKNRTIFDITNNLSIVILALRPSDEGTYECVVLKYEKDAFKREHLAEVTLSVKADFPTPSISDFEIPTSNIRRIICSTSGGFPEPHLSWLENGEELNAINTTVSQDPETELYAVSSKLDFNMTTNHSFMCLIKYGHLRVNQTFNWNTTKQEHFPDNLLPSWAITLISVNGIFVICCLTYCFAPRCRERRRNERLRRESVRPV
# UniProt P42081, sequence (P42081 24-329): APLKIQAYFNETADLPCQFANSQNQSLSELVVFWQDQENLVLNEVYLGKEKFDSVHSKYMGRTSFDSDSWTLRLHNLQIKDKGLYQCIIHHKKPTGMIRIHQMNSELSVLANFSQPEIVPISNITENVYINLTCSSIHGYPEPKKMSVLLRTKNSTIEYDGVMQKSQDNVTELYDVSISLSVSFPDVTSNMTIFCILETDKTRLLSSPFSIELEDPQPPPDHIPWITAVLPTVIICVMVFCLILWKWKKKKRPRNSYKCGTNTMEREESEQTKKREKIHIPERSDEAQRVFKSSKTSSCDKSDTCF
substance,measurement,setting,value
"CTLA4 expressed from a CTLA4-P2A-GFP transgene in human T cells (exon 1 cDNA insertion, intron 1 insertion of exons 2-4 with WPRE donor, or lentiviral vector) (from UniProt P16410 36-223) (receptor)","transendocytosis, cells edited with the cDNA exon 1 insertion (fold less than unedited cells)",[1],2
same,"transendocytosis, cells edited with the cDNA exon 1 insertion (fold less than unedited cells)",[2],2
